The text below walks through data of publication PMC2900298.

The target in the test is HSV1(F) viral capsids treated with 0.5 M KCl (HSV1 strain F) (UniProt P10219). In words: immunoelectron microscopy (immunogold labelling of capsids, negative staining); capsids incubated with […] pig brain cytosol, adsorbed on grids, labelled with antibodies against MAP subunits and protein-A gold; gold per mono-disperse capsid counted, labelling of capsids in buffer subtracted as background.
Chain of UniProt P10219 (P10219 whole entry, looked up): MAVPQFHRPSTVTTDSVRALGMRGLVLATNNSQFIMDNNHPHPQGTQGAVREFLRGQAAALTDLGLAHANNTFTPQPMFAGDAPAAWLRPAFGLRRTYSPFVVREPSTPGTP

Substance “cytoplasmic dynein of pig brain cytosol (complex)” came in with a gold particles per capsid above background of 0.75 gold/capsid; a percent of capsids with more than one complex, background taken into account of 20%; a percent of capsids with two labels of 40%.

kinesin-1 of pig brain (complex) returned a gold particles per capsid above background of 0.5 gold/capsid; a percent of capsids with more than one complex, background taken into account of 10%; a percent of capsids with two labels of 20%.

In the case of “kinesin-2 of pig brain cytosol (complex)”, the gold particles per capsid above background stood at 0.5 gold/capsid and the percent of capsids with two labels worked out at 8%.
